From PMC6692446, “Characterization of H/D exchange in type 1 pili by proton-detected solid-state NMR and molecular dynamics simulations” (Journal of Biomolecular Nmr, 2019)

Molecular target: the molecule itself
Experiment: H/D exchange followed by proton-detected solid-state NMR; pre-assembled reprotonated pili washed four times with 100% D2O buffer (10 mM sodium phosphate pH 7.0, 0.02% sodium azide), each with 4 h at room temperature; peak volumes of 3D (H)CANH spectra of redeuterated and reprotonated pili compared; 40 kHz MAS, 16.4 T, 17 °C; protection assigned to intra- or intermolecular contacts on the cryo-EM structure PDB 5OH0

B1: FimA, type 1 pilus rod subunit (recombinant, assembled in vitro into type 1 pili) (natural protein, Escherichia coli, UniProt P04128 24-182, looked up)
chain: AATTVNGGTVHFKGEVVNAACAVDAGSVDQTVQLGQVRTASLAQEGATSSAVGFNIQLNDCDTNVASKAAVAFLGTAIDAGHTNVLALQSSAAGSATNVGVQILDRTGAALTLDGATFSSETTLNNGTNTIPFQARYFATGAATPGAANADATFKVQYQ
notes: FimA, major subunit of the type 1 pilus rod of Escherichia coli; Uniformly [2H,13C,15N]-labelled, proton back-exchanged at labile sites; Intramolecular disulfide Cys21-Cys61; In the pilus each subunit's N-terminal donor strand complements the neighbouring subunit; also called polymerized FimA; reprotonated pili
- binding result: binds
